This is an account of results in US20190225698A1 (JIANGSU HENGRUI MEDICINE, published 2019).

Experiment [1] addresses T1, murine CD27 expressed on the cell surface of transfected HEK293 cells (murine, UniProt P41272 24-250).
T1 construct: whole, on cells; also called mouse CD27 antigen expressed by HEK293 cells
T1 sequence (looked up): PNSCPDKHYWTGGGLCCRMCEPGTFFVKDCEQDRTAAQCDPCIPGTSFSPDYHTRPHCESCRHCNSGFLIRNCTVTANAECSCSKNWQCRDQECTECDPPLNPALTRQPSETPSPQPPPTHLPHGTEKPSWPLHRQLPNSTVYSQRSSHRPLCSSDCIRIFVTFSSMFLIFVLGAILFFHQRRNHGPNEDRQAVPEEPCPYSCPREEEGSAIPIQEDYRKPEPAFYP
Nature of the experiment: flow cytometry on transfected HEK293 cells. A general note: A flow cytometer gives signals particle by particle.

Experiment [2] concerns the target T2, human CD137 expressed on transfected HEK293 cells (human, UniProt Q07011 24-255).
T2 construct: whole, on cells
Put plainly: flow cytometry on transfected HEK293 cells.

Experiment [3] concerns the target T3, human CD27 expressed on the cell surface of transfected HEK293 cells (human, UniProt P26842 20-260).
T3 construct: whole, on cells; also called human CD27 antigen expressed by HEK293 cells
T3 sequence (looked up): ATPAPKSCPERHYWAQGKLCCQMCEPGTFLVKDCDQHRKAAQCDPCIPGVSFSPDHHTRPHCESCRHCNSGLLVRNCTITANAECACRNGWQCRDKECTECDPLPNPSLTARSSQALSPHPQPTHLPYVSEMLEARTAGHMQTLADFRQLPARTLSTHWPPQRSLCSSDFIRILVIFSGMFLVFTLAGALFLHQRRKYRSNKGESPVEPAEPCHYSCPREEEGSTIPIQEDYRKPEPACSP
Nature of the experiment: flow cytometry on transfected HEK293 cells.

The target of experiment [4] is T4, murine CD27-FcHis fusion protein (murine, UniProt P41272 24-182, limits assumed).
T4 construct: Immobilized directly on the chip by amino coupling; also called mouse CD27; not shown: Fc and His tag
T4 sequence (looked up): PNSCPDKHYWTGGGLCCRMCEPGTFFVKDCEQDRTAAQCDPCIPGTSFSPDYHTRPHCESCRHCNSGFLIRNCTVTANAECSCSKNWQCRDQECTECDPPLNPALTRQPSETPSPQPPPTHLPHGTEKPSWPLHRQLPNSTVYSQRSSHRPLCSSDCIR
Put plainly: SPR (Biacore), murine CD27-FcHis immobilized, antibody as analyte. How it is done:
The affinity of the antibody binding to […] CD27 was also determined using SPR. In this experiment, the murine CD27-FcHis fusion protein was directly immobilized on a CMS chip (600 RU) by amino coupling. Antibodies at different concentrations (0.39, 0.78, 1.56, 3.13, 6.25, 12.5, 25, 50, 100 nM) were loaded at a flow rate of […] for 30 seconds with a dissociation time of 1800 seconds.
For orientation: SPR reads the build-up and loss of mass on a sensor chip optically.

Experiment [5] addresses T1, murine CD27 expressed on the cell …. Nature of the experiment: flow cytometry on transfected HEK293 cells, 100 nM antibody. Here is the method: (§1) The binding of antibody to human or murine CD27 expressed on cell surface is determined by fluorescence activated cell sorting (FACS). The corresponding antigen was transiently transfected into HEK293 cells using a vector plasmid and expressed. After 48 hours, cells were harvested and washed once with cold FACS buffer (PBS, 1% BSA), and then incubated with 100 nM corresponding antibody for 1 hour on ice. After washing twice with buffer, the cells were bound to Alexa Fluor 647-conjugated murine anti-human Fc antibody for 30 minutes on ice. After washing once, the cells were loaded onto a Beckman® CytoFlex flow cytometer for detection and the percentage of cells with binding signals was calculated.

Experiment [6] concerns the target T3, human CD27 expressed on the cell …. The description is as above. How it is done:
as §1

T2 sequence (Q07011 24-255): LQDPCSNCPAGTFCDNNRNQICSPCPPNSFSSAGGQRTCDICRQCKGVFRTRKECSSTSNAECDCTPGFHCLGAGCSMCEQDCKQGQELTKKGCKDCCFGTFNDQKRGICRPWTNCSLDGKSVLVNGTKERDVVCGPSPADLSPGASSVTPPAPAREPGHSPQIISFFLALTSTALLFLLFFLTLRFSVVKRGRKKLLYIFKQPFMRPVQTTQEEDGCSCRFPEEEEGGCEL

B1: anti-CD27 antibody mAb076 (IgG1 form) (antibody, V domains shown)
VH: EVQLVESGGGLVQPGGSLRLSCAASGFTFSDYGIHWVRQAPGKGLEWIGWINPNRGSTNYAQKFQGRVTISRDNSKNTLYLQLNSLRAEDTAVYYCARDYGYTWYFDVWGQGTLVTVSS
VL: DIQLTQSPSSLSASVGDRVTITCRASQDISSVLAWYQQKPGKAPKLLIYAASSLQSGVPSRFSGSGSGTDFTLTISSLQPEDFATYYCQQRDAWPLTFGQGTKVEIK
notes: Human antibody from phage display
Regarding B1, the binding result in experiment [1] is reported as “binds”; in experiment [2], “no binding (tested: 100 nM)”; in experiment [3] it was “binds”; in experiment [4], “binds”.

B2: anti-CD27 antibody mAb077 (IgG1 form) (antibody, V domains shown)
VH: EVQLVESGGGLVQPGGSLRLSCAASGFTFSGYGIHWVRQAPGKGLEWIGWINPNRGSTKYAQKFQGRVTISRDNSKNTLYLQLNSLRAEDTAVYYCARDPGYTWYFDVWGQGTLVTVSS
VL: DIQLTQSPSSLSASVGDRVTITCRASQDISSDLAWYQQKPGKAPKLLIYAASTLQSGVPSRFSGSGSGTDFTLTISSLQPEDFATYYCQQRDAWPPTFGQGTKVEIK
notes: as for B1
For the molecule B2, the binding result in experiment [2] is recorded as “no binding (tested: 100 nM)”; in experiment [5], “binds”; in experiment [6], “binds”; in experiment [4] it was “binds”.
